Experimental data taken from patent US20030162190.

What was measured:
NF-kB p50 homodimer = NF-kB p50 homodimer (UniProt P19838); assay: EMSA; details: only 'similar data was collected for p50'; method inferred
[1] = target: NF-kB p65 (RelA) homodimer (UniProt Q04206); assay: EMSA; details: 1:1 stoichiometry; method inferred
NF-kB p65 (RelA) homodimer, sequence (Q04206 whole entry): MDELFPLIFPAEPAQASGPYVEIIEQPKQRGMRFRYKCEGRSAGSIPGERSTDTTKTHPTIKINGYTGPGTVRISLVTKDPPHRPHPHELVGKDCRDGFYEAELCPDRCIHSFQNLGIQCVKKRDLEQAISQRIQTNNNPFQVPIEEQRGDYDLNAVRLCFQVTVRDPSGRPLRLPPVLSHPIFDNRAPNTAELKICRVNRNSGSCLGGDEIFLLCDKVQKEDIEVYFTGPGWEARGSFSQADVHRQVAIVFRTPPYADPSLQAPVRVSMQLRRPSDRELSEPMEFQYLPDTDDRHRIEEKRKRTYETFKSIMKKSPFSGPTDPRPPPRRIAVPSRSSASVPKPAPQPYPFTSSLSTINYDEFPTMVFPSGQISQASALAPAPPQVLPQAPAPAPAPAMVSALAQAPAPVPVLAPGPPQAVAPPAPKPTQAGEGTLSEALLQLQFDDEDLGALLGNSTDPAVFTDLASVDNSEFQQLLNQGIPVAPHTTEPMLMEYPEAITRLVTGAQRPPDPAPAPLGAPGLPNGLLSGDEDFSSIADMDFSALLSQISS

NF-kB p50 homodimer, sequence (P19838 1-433): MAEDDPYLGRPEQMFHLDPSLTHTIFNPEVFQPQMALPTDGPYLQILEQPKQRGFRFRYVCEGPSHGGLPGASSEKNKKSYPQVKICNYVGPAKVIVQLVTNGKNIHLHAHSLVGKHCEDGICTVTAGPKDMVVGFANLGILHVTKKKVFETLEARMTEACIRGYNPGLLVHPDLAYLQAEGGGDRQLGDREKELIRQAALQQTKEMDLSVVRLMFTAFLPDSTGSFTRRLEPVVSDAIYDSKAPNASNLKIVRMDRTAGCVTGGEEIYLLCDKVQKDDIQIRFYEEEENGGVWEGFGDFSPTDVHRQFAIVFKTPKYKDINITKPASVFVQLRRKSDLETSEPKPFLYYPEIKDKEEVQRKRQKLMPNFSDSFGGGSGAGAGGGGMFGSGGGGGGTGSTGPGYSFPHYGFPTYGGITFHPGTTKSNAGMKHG

Substance: IgkB 22-mer promoter site
- Kd (NF-kB p50 homodimer): 4 nM
- Kd [1]: 4 nM
